The values that follow come from paper PMC10234888, “Upregulation of glycolytic enzyme PFKFB3 by deubiquitinase OTUD4 promotes cardiac fibrosis post myocardial infarction” (Journal of Molecular Medicine (Berlin, Germany), 2023).

The assay addresses T1, OTUD4 human recombinant protein (human, UniProt Q01804 1-1114).
T1 construct: deubiquitinase OTUD4, human, recombinant protein from Origene; No catalogue number is printed; also called deubiquitinase OTUD4; source: bought: Origene Technologies, Inc
T1 sequence (looked up): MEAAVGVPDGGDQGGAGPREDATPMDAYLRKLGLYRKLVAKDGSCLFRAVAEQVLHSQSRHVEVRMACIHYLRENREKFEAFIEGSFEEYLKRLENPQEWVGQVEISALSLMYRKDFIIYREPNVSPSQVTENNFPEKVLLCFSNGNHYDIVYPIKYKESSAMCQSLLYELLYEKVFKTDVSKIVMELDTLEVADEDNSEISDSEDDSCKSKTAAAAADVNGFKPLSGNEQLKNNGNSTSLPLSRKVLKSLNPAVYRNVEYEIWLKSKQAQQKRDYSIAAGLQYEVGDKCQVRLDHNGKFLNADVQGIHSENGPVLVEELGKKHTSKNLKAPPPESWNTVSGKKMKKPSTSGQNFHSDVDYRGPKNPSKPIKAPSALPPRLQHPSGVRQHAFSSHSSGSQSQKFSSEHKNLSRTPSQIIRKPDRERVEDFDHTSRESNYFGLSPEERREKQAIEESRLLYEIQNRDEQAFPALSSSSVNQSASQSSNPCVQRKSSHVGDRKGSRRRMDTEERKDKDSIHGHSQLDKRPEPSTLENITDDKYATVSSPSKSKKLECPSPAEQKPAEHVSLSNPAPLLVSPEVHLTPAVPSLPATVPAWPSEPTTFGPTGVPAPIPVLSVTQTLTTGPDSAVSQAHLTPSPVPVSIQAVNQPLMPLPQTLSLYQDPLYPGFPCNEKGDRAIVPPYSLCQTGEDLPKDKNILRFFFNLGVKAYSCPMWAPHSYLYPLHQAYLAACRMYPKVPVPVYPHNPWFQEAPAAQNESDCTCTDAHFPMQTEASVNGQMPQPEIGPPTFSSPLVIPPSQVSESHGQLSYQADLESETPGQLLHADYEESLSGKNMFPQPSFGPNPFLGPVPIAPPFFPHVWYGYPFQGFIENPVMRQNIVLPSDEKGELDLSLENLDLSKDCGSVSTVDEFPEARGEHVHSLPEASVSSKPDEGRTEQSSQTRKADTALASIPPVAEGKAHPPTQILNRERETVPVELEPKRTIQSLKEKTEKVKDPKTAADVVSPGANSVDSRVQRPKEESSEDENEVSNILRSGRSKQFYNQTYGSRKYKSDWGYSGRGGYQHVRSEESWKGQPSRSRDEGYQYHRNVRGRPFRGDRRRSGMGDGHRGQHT
Kind of assay: SPR; Biacore T200; OTUD4 on a CM5 chip by amine coupling; various concentrations of PFKFB3 injected over the OTUD4 surface. As to conditions: both partners purified.

B1: human recombinant PFKFB3 protein (enzyme, UniProt Q16875 1-520, looked up)
chain: MPLELTQSRVQKIWVPVDHRPSLPRSCGPKLTNSPTVIVMVGLPARGKTYISKKLTRYLNWIGVPTKVFNVGEYRREAVKQYSSYNFFRPDNEEAMKVRKQCALAALRDVKSYLAKEGGQIAVFDATNTTRERRHMILHFAKENDFKAFFIESVCDDPTVVASNIMEVKISSPDYKDCNSAEAMDDFMKRISCYEASYQPLDPDKCDRDLSLIKVIDVGRRFLVNRVQDHIQSRIVYYLMNIHVQPRTIYLCRHGENEHNLQGRIGGDSGLSSRGKKFASALSKFVEEQNLKDLRVWTSQLKSTIQTAEALRLPYEQWKALNEIDAGVCEELTYEEIRDTYPEEYALREQDKYYYRYPTGESYQDLVQRLEPVIMELERQENVLVICHQAVLRCLLAYFLDKSAEEMPYLKCPLHTVLKLTPVAYGCRVESIYLNVESVCTHRERSEDAKKGPNPLMRRNSVTPLASPEPTKKPRINSFEEHVASTSAALPSCLPPEVPTQLPGQNMKGSRSSADSSRKH
notes: phosphofructokinase-2/fructose-2,6-bisphosphatase 3 (PFKFB3), human, recombinant protein from Origene; No catalogue number is printed; also called phosphofructokinase-2/fructose-2,6-bisphosphatase 3; source: bought: Origene
As for B1, the dissociation constant Kd turned out to be 250 nM.
